Read-outs that look alike come from different tables or passages of the source.

For experiment [1], the target named is Ubx with E19G in the homeodomain, fused to VN (Ubx^E19G) (Drosophila). The experiment in a line: split reporter (BiFC, NanoBiT); BiFC in HEK293 cells co-transfected with VN- and VC-plasmids and pCAG-mCherry; read 48 h after transfection; percent = Venus fluorescent cells in one hundred red fluorescent cells, three independent triplicates.
For experiment [2], the target named is Ubx homeodomain fused to VN (UbxHD) (Drosophila). The experiment is described as above.
Experiment [3] has as its target Ultrabithorax full-length fused to the N-terminal half of Venus (VN-Ubx) (Drosophila) (UniProt P83949). Described as above.
In experiment [4] the target is Ubx homeodomain fused to VN (UbxHD) (Drosophila). The experiment is described as above. This is another data set of the same source.
The target of experiment [5] is AntpΔHD-Ubx BiFC pair (VC-AntpΔHD with VNUbx) (Drosophila) (UniProt P02833). The experiment in a line: split reporter (BiFC, NanoBiT) + FRET or BRET; BiFC-FRET in HEK293 cells: Venus reconstituted by the Antp-Ubx BiFC as acceptor, third protein fused to ECFP as donor; confocal spectral imaging 48 h after transfection; E-value by FRETTY in ImageJ. In general terms: BRET reads energy transfer from a luciferase to a nearby fluorophore.

Experiment [6] has as its target Antp^AAAA-Ubx BiFC complex (YPWM mutant Antp with VNUbx) (Drosophila) (UniProt P02833). The description is as above.

Ubx homeodomain fused to VN (UbxHD) (Drosophila), sequence (P83949 whole entry, the tested form may be a part): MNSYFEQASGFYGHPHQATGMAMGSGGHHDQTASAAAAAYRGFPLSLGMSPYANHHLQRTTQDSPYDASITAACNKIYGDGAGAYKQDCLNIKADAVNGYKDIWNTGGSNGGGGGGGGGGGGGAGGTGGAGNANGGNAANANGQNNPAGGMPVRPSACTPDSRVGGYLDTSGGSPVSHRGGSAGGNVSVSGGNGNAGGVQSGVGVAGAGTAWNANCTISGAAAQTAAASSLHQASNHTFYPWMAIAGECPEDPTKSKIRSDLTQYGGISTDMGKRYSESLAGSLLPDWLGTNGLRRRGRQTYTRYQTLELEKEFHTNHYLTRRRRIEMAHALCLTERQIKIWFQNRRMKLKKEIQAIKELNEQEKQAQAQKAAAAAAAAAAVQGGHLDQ

“Antennapedia full-length fused to the C-terminal half of Venus (VC-Antp) (from UniProt P02833 1-378) (natural protein)” yielded a percent of transfected cells positive in BiFC in experiment [1] of 86%. Regarding “Antp homeodomain fused to VC (AntpHD) (domain or fragment)”, the percent of transfected cells positive in BiFC in experiment [2] is 96%. As to “Antp homeodomain with E19G, fused to VC (AntpHD^E19G) (domain or fragment)”, the percent of transfected cells positive in BiFC stood at 60% in experiment [3] and 67% in experiment [1]. Molecule “Antp lacking homeodomain helix 1, fused to VC (AntpΔH1) (from UniProt P02833 1-378) (natural protein)” displayed a percent of transfected cells positive in BiFC in experiment [3] of 24%. The same measure, in the same setting: the same measure for “Antp lacking homeodomain helixes 1 and 2, fused to VC (AntpΔH1-2) (from UniProt P02833 1-378) (natural protein)”: 12%; for “Antp with the homeodomain deleted, fused to VC (AntpΔHD) (from UniProt P02833 1-378) (natural protein)”: 6%. With “TBP without the PolyQ stretch, fused to a Venus half for BiFC (TBPΔQ) (from UniProt P20227 1-353) (natural protein)”, the values for the percent of transfected cells positive in BiFC in experiment [3] and in experiment [2] were 34% and 15%, respectively.

B1: TATA-binding protein fused to a Venus half for BiFC (TBP) (natural protein)
chain: MDQMLSPNFSIPSIGTPLHQMEADQQIVANPVYHPPAVSQPDSLMPAPGSSSVQHQQQQQQSDASGGSGLFGHEPSLPLAHKQMQSYQPSASYQQQQQQQQLQSQAPGGGGSTPQSMMQPQTPQSMMAHMMPMSERSVGGSGAGGGGDALSNIHQTMGPSTPMTPATPGSADPGIVPQLQNIVSTVNLCCKLDLKKIALHARNAEYNPKRFAAVIMRIREPRTTALIFSSGKMVCTGAKSEDDSRLAARKYARIIQKLGFPAKFLDFKIQNMVGSCDVKFPIRLEGLVLTHCNFSSYEPELFPGLIYRMVRPRIVLLIFVSGKVVLTGAKVRQEIYDAFDKIFPILKKFKKQS
As to B1, the percent of transfected cells positive in BiFC in experiment [4] amounted to 41%.

B2: Extradenticle fused to ECFP (natural protein)
chain: MEDPNRMLAHTGGMMAPQGYGLSGQDDGQNAGSENEVRKQKDIGEILQQIMSISEQSLDEAQARKHTLNCHRMKPALFSVLCEIKEKTVLSIRNTQEEEPPDPQLMRLDNMLIAEGVAGPEKGGGGAAAASAAAASQGGSLSIDGADNAIEHSDYRAKLAQIRQIYHQELEKYEQACNEFTTHVMNLLREQSRTRPITPKEIERMVQIIHKKFSSIQMQLKQSTCEAVMILRSRFLDARRKRRNFSKQASEILNEYFYSHLSNPYPSEEAKEELARKCGITVSQVSNWFGNKRIRYKKNIGKAQEEANLYAAKKAAGASPYSMAGPPSGTTTPMMSPAPPQDSMGYPMGSGGYDQQQPYDNSMGGYDPNLHQDLSP
Turning to B2, the FRET E value in experiment [5] stood at 0.12; in experiment [6], 0.16.

Values taken from publication PMC11290222.
